± gives the uncertainty stated by the source.
Test: protein stability index of a GFP-peptide fusion (yeast GPS) (PSI 1-4); higher = more stable; sorted into four equal gates, so the index is relative within each strain
Procedure, shortened: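 The protein stability index combines read frequencies across sorting gates, each weighted by its gate number and then summed. To obtain those frequencies, a pooled yeast library of GFP fusions to tiled 17-residue yeast protein peptides, on a plasmid also expressing Cherry, was grown to mid-log phase in leucine-free medium. The cells were sorted into four equal gates by GFP/Cherry ratio before plasmid amplification by PCR and Illumina sequencing.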

Row | Sequence | protein stability index (doa10∆) | protein stability index (pdr5∆) | protein stability index (san1∆) | protein stability index (ubr1∆)
1 | RQKINGCEANIHSLVKQ [YIL149C/MLP2] | 3.12 ± 0.14 | 3.33 ± 0.13 | 2.98 ± 0.22 | 2.79 ± 0.21
2 | TRSHFNALYDTLLESNL [RPN6] | 2.3 ± 0.05 | 2.49 ± 0.057 | 2.65 ± 0.047 | 2.69 ± 0.042
3 | SFATATCVTCHWNLPGE [SIR2] | 1.64 ± 0.068 | 1.97 ± 0.11 | 1.9 ± 0.084 | 1.92 ± 0.064
4 | YMLIEEAASSNKSFIVD [ITC1] | 2.96 ± 0.078 | 2.91 ± 0.06 | 2.78 ± 0.041 | 2.9 ± 0.049
5 | EGTRNRFSYSPPKEGNY [YMR129W/POM152] | 3.19 ± 0.13 | 3.06 ± 0.062 | 2.88 ± 0.043 | 3.13 ± 0.042
6 | LSIKNSFIINFISNLPN [NUT1] | 1.92 ± 0.07 | 1.81 ± 0.05 | 1.87 ± 0.1 | 1.79 ± 0.04
7 | TATTGKRKPAKSSSNRS [RPN4] | 2.68 ± 0.065 | 2.96 ± 0.07 | 2.68 ± 0.047 | 2.85 ± 0.047
8 | NLHAEGWPKLQLGPQTP [ECM29] | 2.43 ± 0.18 | 2.74 ± 0.18 |  | 2.9 ± 0.24
9 | GDIESLFEQLQTVSNKE [SRP54] | 3.08 ± 0.098 | 2.87 ± 0.079 | 3.18 ± 0.045 | 3.12 ± 0.046
10 | NVLVTMPVAPTMEVKSF [YMR129W/POM152] | 1.54 ± 0.068 | 1.62 ± 0.11 | 1.95 ± 0.11 | 1.46 ± 0.068
11 | KELNEKIQKLEEDDEGE [RPN7] | 1.2 ± 0.11 | 1.61 ± 0.12 | 1.25 ± 0.15 | 1.06 ± 0.08
12 | ENIAQMKPKAEKESDDG [SMC4] | 3.1 ± 0.26 | 3.16 ± 0.23 |  | 3.74 ± 0.2
13 | NLGEYYAQIGDKDNAEK [RPN7] | 1.92 ± 0.056 | 2.05 ± 0.075 | 2.49 ± 0.087 | 2.47 ± 0.053
14 | RFEVINNETEQLKAEEK [SMC1] | 1.72 ± 0.08 | 2.06 ± 0.092 | 3.05 ± 0.13 | 2.6 ± 0.12
15 | ASLVPEGNQGSLQEDVS [MED8] | 3.19 ± 0.096 | 3.24 ± 0.087 | 2.9 ± 0.048 | 2.41 ± 0.097
16 | LTKAQKYLEQVLDHQRA [RPL17A] | 2.69 ± 0.056 | 2.73 ± 0.063 | 2.47 ± 0.062 | 2.51 ± 0.039
17 | HKLRESLPLIVFLRNRL [RPS4A] | 1.85 ± 0.052 | 1.57 ± 0.053 | 1.4 ± 0.1 | 1.43 ± 0.043
18 | FKSLIDEDLLDTQTFSV [YGL172W/NUP49] | 3.17 ± 0.17 | 3.05 ± 0.25 |  | 3.76 ± 0.26
19 | KPALGSLGSSSTTASGT [YGR119C/NUP57] | 3.22 ± 0.085 | 3.3 ± 0.084 | 3.05 ± 0.062 | 3.06 ± 0.1
20 | PSLKAHFTEIKLNKVDK [SIR3] | 2.31 ± 0.061 | 2.13 ± 0.065 | 2.35 ± 0.065 | 2.08 ± 0.082
21 | FLSLLNLATKGMVKLNE [REC8] | 2.77 ± 0.07 | 1.59 ± 0.055 | 1.6 ± 0.078 | 1.58 ± 0.045
22 | NVRALYMRLWEINETEF [RMP1] | 3 ± 0.24 |  |  | 
23 | SNDNLDLISEILKWVQW [MED1] | 3.03 ± 0.057 | 2.92 ± 0.058 | 2.9 ± 0.051 | 3.09 ± 0.047
24 | TNNVLRKLGLLGDKEDE [MTW1] | 2.27 ± 0.048 | 2.35 ± 0.054 | 1.85 ± 0.085 | 2.58 ± 0.049
25 | SSVKTCFKPMSLTSKRL [RIP1] | 3.02 ± 0.063 | 3.04 ± 0.063 | 2.85 ± 0.047 | 2.62 ± 0.033
26 | KERNSLKKLKAMNDACY [BRR2] | 3.18 ± 0.086 | 3.16 ± 0.059 | 2.98 ± 0.051 | 3.05 ± 0.06

Row | Sequence | protein stability index (doa10∆) | protein stability index (pdr5∆) | protein stability index (san1∆) | protein stability index (ubr1∆)
27 | SLISVLEASLNSITKDN [YJL039C/NUP192] | 2.46 ± 0.052 | 2.24 ± 0.038 | 2.31 ± 0.048 | 2.09 ± 0.026
28 | KEYENHSGELMRQQSKE [SMC1] | 2.83 ± 0.1 | 2.85 ± 0.077 | 2.9 ± 0.05 | 3 ± 0.082
29 | RTDQYTIDNIDSENFSF [YMR129W/POM152] | 2.88 ± 0.042 | 2.99 ± 0.043 | 2.91 ± 0.039 | 3.01 ± 0.036
30 | IKLGSTAIGIATKEGVV [PUP2] | 1.54 ± 0.11 | 1.63 ± 0.18 | 1.34 ± 0.26 | 1.32 ± 0.11
31 | KNFIESESVGAFLSFLA [YJL039C/NUP192] | 2.1 ± 0.066 | 2.25 ± 0.068 | 2.47 ± 0.066 | 2.85 ± 0.045
32 | SENAPSASSKEFNFTNL [YAR002W/NUP60] | 2.83 ± 0.052 | 2.94 ± 0.062 | 2.88 ± 0.051 | 2.99 ± 0.056
33 | ETLSIFTNVPLNLEQVT [YJL039C/NUP192] | 2.33 ± 0.044 | 2.53 ± 0.049 | 2.33 ± 0.055 | 2.42 ± 0.044
34 | IDVMKSQIIPLMKKACY [SNU114] | 2.23 ± 0.094 | 2 ± 0.051 | 2.77 ± 0.047 | 2.08 ± 0.05
35 | GRLLRAMFEICLKRGWG [BRR2] | 1.75 ± 0.11 | 1.59 ± 0.091 | 1.76 ± 0.12 | 1.81 ± 0.077
36 | SNIEQTESLRVENSVLI [YIL149C/MLP2] | 3.25 ± 0.091 | 3.09 ± 0.14 | 3.08 ± 0.049 | 3.07 ± 0.064
37 | KVKPIRGFCQRLKGKQG [RPO31] | 2.79 ± 0.14 | 2.97 ± 0.16 | 2.79 ± 0.13 | 
38 | SYLSETLISRISSLFTI [YML103C/NUP188] | 1.77 ± 0.062 | 1.89 ± 0.064 | 1.5 ± 0.074 | 2.05 ± 0.083
39 | MSAVPSVQTFGKKKSAT [RPS16A] | 1.45 ± 0.1 | 1.32 ± 0.15 | 1.26 ± 0.26 | 1.22 ± 0.13
40 | LGYKDTSVIQDLSEKIL [BRR2] | 2.77 ± 0.098 | 2.8 ± 0.098 | 2.81 ± 0.063 | 2.89 ± 0.065
41 | TNWIIYPLWVMAKQLIR [CSN12] | 1.39 ± 0.11 | 1.2 ± 0.13 |  | 1.24 ± 0.11
42 | ALIRRDFTLIPRMASVF [CDC53] | 2.12 ± 0.13 | 2.39 ± 0.072 | 2.64 ± 0.16 | 2.17 ± 0.14
43 | GKLISNLSSTPMETLLS [YML031W/NDC1] | 2.61 ± 0.11 | 2.92 ± 0.12 | 2.51 ± 0.11 | 2.5 ± 0.063
44 | TTFTKVAAKWNTSLISL [PRP8] | 2.09 ± 0.052 | 2.39 ± 0.06 | 2.4 ± 0.082 | 2.06 ± 0.036
45 | SYWQKSYFKNSVIVKFH [LIN1] | 2.56 ± 0.041 | 2.62 ± 0.045 | 2.42 ± 0.06 | 2.35 ± 0.041
46 | IGQSEELSDKEIYTVED [ISW2] | 3.35 ± 0.13 | 3.46 ± 0.14 | 3.31 ± 0.17 | 3.44 ± 0.13
47 | KSSNDTIEHAADITDGN [YCG1] | 2.98 ± 0.25 | 3.16 ± 0.2 | 3.23 ± 0.17 | 3.3 ± 0.15
48 | ATTQDQVASIIESFVEL [NUT2] | 2.11 ± 0.071 | 2.65 ± 0.076 | 2.17 ± 0.15 | 2.49 ± 0.054
49 | ELAINLIRFDESITKAM [SMC2] | 2.59 ± 0.062 | 2.78 ± 0.08 | 2.62 ± 0.09 | 2.65 ± 0.071
50 | DPQPFLKHVLQLIFRQQ [SNU114] | 1.38 ± 0.042 | 2.02 ± 0.052 | 2.44 ± 0.064 | 2.51 ± 0.038
51 | NLSSTPMETLLSGLSAD [YML031W/NDC1] | 2.42 ± 0.075 | 2.59 ± 0.071 | 2.53 ± 0.055 | 2.42 ± 0.038

— the supplement of paper PMC9732359
